Experimental data reported in the supplement of paper PMC10567573.
± gives the standard deviation.

Assay: protein stability index of a GFP-peptide fusion (GPS, HEK-293T) (PSI 1-6); higher = more stable
[1] = treatment: DMSO, c terminus: a fixed tail appended
[2] = treatment: MLN4924 1 uM, 8 h, c terminus: a fixed tail appended
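Further: 24-mer peptide tiles fused after GFP, lentivirally expressed, FACS-sorted into six equal bins by GFP/DsRed ratio, decoded by Illumina sequencing, PSI is the read-weighted mean bin number.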

Sequence	protein stability index [1]	protein stability index [2]	protein stability index (treatment: DMSO, c terminus: native)	protein stability index (treatment: MLN4924 1 uM, 8 h, c terminus: native)
IKNLYAFNLFCQKRFDESMQVFAK [VPS39]	2.19 ± 0.29	1.96 ± 0.21	–	–
ILAETGIRKTVKRLRKHQHVGDFA [ELOA2]	2.78 ± 0.23	3.16 ± 0.49	–	–
ILELYNIDSHLLLSVLPQLEFKLK [PDS5B]	2.64 ± 0.53	2.45 ± 0.78	–	–
ILGGSGPVRKLYDDCSSTIVEDPQ [ESRRG]	4.37 ± 0.3	4.41 ± 0.3	–	–
ILLQEIPIRSISLRSCYFSDPDCS [FBXO39]	2.55 ± 0.54	2.91 ± 0.72	–	–
ILTIMATLKIRNSNFYTVAVTSLS [TMEM106C]	3.3 ± 0.36	3.16 ± 0.38	–	–
ILVNLQGTVVFLLSLFIPESPRWL [SLC22A15]	3.12 ± 0.14	3.23 ± 0.48	–	–
IMELTGGGQESSGLNLGKKISVPR [MYOZ1]	3.58 ± 0.19	3.83 ± 0.33	–	–
IMLKNISQDERLDVLLTLKHTVKE [IQUB]	2.45 ± 0.56	2.09 ± 0.34	–	–
IPAEENASTSTPSSTLVRPIRSRR [FAM189A2]	5.29 ± 0.16	5.33 ± 0.19	–	–
IRALLNLHTDVGSVRMRRAEKSVA [NEK8]	2.42 ± 0.21	2.53 ± 0.19	–	–
IREKSRLFDTKHDVYSFAIVIWGV [RIPK4]	3.27 ± 0.68	2.9 ± 0.83	–	–
IRGRYLVALGHAYHPEEFVCSQCG [PDLIM7]	2.51 ± 0.18	2.77 ± 0.3	–	–
IRSSFISSLSFFLKKMGKRLDYLN [FBXO39]	2.71 ± 0.61	2.81 ± 0.56	–	–
ISSTTCGRQLEKVPEKRDSGMTEV [SPATS1]	4.27 ± 0.24	4.38 ± 0.35	–	–
ITKQGDGVDFLSWFLNALHSALGG [USP39]	2.22 ± 0.47	2.11 ± 0.21	–	–
ITMMALKVLGELNILPNTQKVTCF [TENT5D]	2.86 ± 0.59	2.31 ± 0.75	–	–
ITNQVVAQVDGAAMFAADPKKPIG [RAD51]	4.58 ± 0.11	4.51 ± 0.2	–	–
IYSTKLYRFFKYIENRDVAKSVLK [BTBD10]	3.1 ± 0.97	2.37 ± 0.61	–	–
KALSRKSTSFRVYIMAFDIKSEDM [FBXO33]	2.74 ± 0.54	2.6 ± 0.55	–	–
KASSRKPFGILSPNVLCSMSGKSP [FBXO34]	2.83 ± 0.095	3 ± 0.27	–	–
KCMRNGPNALIASLALGDLIYVVI [EDNRA]	3.49 ± 0.4	2.79 ± 0.79	–	–

Sequence	protein stability index [1]	protein stability index [2]	protein stability index (treatment: DMSO, c terminus: native)	protein stability index (treatment: MLN4924 1 uM, 8 h, c terminus: native)
KEAKEFLVQLRNMVQQIQENSVEF [TRIM9]	2.29 ± 0.31	2.41 ± 0.23	–	–
KECPFRVNKVCGAACSSKRSPIID [SERPINB5]	3.02 ± 0.2	3.12 ± 0.38	–	–
KEEDHYQRARKEREKEDYLHLKRQ [RHOBTB2]	4.85 ± 0.15	5.01 ± 0.19	–	–
KEKLQKCLEPLEQKLQEITRCKSS [TRIM39]	4.38 ± 0.22	4.44 ± 0.4	–	–
KEKSSTVPIPTVNQYLYFLFAPTL [SOAT1]	2.57 ± 1	2.17 ± 0.51	–	–
KGDVEEVQGPGVVGEFPIISPGRV [FBXO3]	4.81 ± 0.27	4.8 ± 0.2	–	–
KGLEDTKSPQFNRYFYLLENIAWV [PDS5B]	2.44 ± 0.89	2.31 ± 0.37	–	–
KGLKKVVHETPAASKTVFFFFSSP [BTBD1]	2.29 ± 0.54	2.29 ± 0.26	–	–
KGMVLDENYNNLANAVISVSGINH [CPN1]	3.06 ± 0.086	3.02 ± 0.29	–	–
KGYTPLHAAASNGQINVVKHLLNL [ANKRD44]	2.67 ± 0.21	2.69 ± 0.25	–	–
KHERTHEIIPINVNNNYEHRHTSH [SPRY1]	3.68 ± 0.37	3.91 ± 0.34	–	–
KHMFERSFTQGEGARPLSTRVPRA [MATN2]	4.07 ± 0.18	3.85 ± 0.35	–	–
KIFNDFKDRMKSDHKRETERVVRE [ZMYND11]	4.12 ± 0.35	4.13 ± 0.081	–	–
KIINTKKLSARDHQKLEREARICR [CAMK2B]	3.45 ± 0.29	3.88 ± 0.24	–	–
KILLDAQHESGQSSSRGSSHCDSP [BNIP3L]	4.91 ± 0.18	4.83 ± 0.1	–	–
KKEDCLKLLLFLSTELQASQILQN [FAM98B]	3.41 ± 1.1	–	–	–
KKQQELTAAVLGLICEGLYPASIV [ZBED1]	2.97 ± 0.63	3.02 ± 0.58	–	–
KLEPMETERSPGPRLQELLGPSPQ [ZNF263]	4.43 ± 0.14	4.52 ± 0.17	–	–
KLFESVECYDPRTQQWTAICPLKE [GAN]	2.5 ± 0.38	2.82 ± 0.13	–	–
KLGNLMSLDISGHMILENCSISKM [ZER1]	2.1 ± 0.24	2.24 ± 0.24	–	–
KLLDHDNVKYLKKILDELEKVLDQ [GDAP1]	2.42 ± 0.56	2.32 ± 0.47	–	–
KLLVVDRTRRLGNMKNGANDVKHH [PRKX]	3.23 ± 0.46	3.48 ± 0.15	–	–

Sequence	protein stability index [1]	protein stability index [2]	protein stability index (treatment: DMSO, c terminus: native)	protein stability index (treatment: MLN4924 1 uM, 8 h, c terminus: native)
KLRHDLKKTSITQQPSKHRTDEEL [PLK2]	4.915 ± 0.039	5.1 ± 0.15	–	–
KLSGFMSKLVPAIQNAHKNSTGSG [TPRG1]	2.72 ± 0.2	3.03 ± 0.23	–	–
KMPVYSGSRPACQLQVPTLRQQCA [ELOA2]	3.23 ± 0.32	3.14 ± 0.15	–	–
KNLKIWNVHTGEFRNCGACVTLMQ [WDR88]	2.42 ± 0.86	2.35 ± 0.54	–	–
KQAKVVARRESGGRPIKPPKKDLE [BRD3]	5.08 ± 0.27	5.05 ± 0.24	–	–
KQKVMTHVSNGCQLLLGVKGHAF [JUNB]	–	–	2.16 ± 0.21	2.23 ± 0.21
KRESPGVGGGSGDEASAATPPSSR [ZBTB22]	5.53 ± 0.23	5.451 ± 0.044	–	–
KRKEEEALKDSLRPKLSEEQQRII [VDR]	5.09 ± 0.26	5.06 ± 0.23	–	–
KRKLDTILNLERDVEDLQRDKARL [NFE2L1]	4.36 ± 0.25	4.46 ± 0.17	–	–
KSCQACRLRKCYEVGMVKCGSRRE [ESR2]	2.35 ± 0.43	3.1 ± 0.33	–	–
KSDKALMMLFNDGTFQVNFYHDHT [PLK2]	1.86 ± 0.32	2.25 ± 0.14	–	–
KSEGQKIPKVELQISIYGVKILEP [GULP1]	2.84 ± 1	2.3 ± 1.1	–	–
KSNSYPHQLYTSSSHHSHSYIGLP [KMT2E]	3.03 ± 0.17	3.24 ± 0.26	–	–
KSWHDMQTTTAYKKTHETLSHAGQ [TPD52L1]	4.01 ± 0.15	3.96 ± 0.18	–	–
KSWLNGFRPKDQTSVGMSFVAGGI [SLC25A39]	2.2 ± 0.18	2.43 ± 0.24	–	–
KTEAEIAHIALETLEGHQRAIMAH [FLOT1]	4.1 ± 0.12	4.06 ± 0.3	–	–
KTLALARTMDIPRSVQNFRFFASS [ALDH8A1]	2.58 ± 0.26	2.6 ± 0.3	–	–
KTQICHTLAVTCQLPIDRGGGEGK [RAD51]	3.81 ± 0.17	3.95 ± 0.42	–	–
KVLEEGGFFEEKGAIFCPPCYDVR [PDLIM7]	2.96 ± 0.29	2.92 ± 0.36	–	–
KYAVPALEAHCVEFLTKHLRADNA [BTBD1]	2.54 ± 0.25	2.74 ± 0.17	–	–
KYDVKKVEEVVYDLSIRGFNKETA [TSN]	3.57 ± 0.31	3.64 ± 0.23	–	–
